The record followed here is patent publication US20230002460A1 (YUHAN, published 2023).

What is called EC50 is the concentration giving half of the maximal effect.

Holding throughout (experiment): cell-based or functional assay
For test [1], the target named is T1, GDF15 receptors GFRAL and RET, overexpressed together on HEK293 cells (UniProt Q6UXV0 19-394; P07949 29-1114, limits assumed).
The target in test [2] is T1, GDF15 receptors GFRAL and RET, …. This is another data set of the same source.
The target is the same in test [3]. This is another data set of the same source.
Test [4] has the same target. This is another data set of the same source.

Like-named read-outs stand apart in the source and are kept apart here.

T1 sequence (Q6UXV0 19-394 limits assumed, chain 1 of 2): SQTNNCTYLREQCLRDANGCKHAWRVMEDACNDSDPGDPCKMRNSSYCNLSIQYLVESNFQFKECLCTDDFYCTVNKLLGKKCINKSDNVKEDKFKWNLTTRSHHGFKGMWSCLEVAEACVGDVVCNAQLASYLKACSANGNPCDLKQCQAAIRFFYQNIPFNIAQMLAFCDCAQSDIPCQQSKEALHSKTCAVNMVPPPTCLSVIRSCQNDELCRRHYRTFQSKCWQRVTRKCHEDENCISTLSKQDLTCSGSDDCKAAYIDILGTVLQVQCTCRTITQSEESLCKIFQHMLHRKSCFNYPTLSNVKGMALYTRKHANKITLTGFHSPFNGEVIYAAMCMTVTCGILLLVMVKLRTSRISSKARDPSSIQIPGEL
T1 sequence (P07949 29-1114 limits assumed, chain 2 of 2): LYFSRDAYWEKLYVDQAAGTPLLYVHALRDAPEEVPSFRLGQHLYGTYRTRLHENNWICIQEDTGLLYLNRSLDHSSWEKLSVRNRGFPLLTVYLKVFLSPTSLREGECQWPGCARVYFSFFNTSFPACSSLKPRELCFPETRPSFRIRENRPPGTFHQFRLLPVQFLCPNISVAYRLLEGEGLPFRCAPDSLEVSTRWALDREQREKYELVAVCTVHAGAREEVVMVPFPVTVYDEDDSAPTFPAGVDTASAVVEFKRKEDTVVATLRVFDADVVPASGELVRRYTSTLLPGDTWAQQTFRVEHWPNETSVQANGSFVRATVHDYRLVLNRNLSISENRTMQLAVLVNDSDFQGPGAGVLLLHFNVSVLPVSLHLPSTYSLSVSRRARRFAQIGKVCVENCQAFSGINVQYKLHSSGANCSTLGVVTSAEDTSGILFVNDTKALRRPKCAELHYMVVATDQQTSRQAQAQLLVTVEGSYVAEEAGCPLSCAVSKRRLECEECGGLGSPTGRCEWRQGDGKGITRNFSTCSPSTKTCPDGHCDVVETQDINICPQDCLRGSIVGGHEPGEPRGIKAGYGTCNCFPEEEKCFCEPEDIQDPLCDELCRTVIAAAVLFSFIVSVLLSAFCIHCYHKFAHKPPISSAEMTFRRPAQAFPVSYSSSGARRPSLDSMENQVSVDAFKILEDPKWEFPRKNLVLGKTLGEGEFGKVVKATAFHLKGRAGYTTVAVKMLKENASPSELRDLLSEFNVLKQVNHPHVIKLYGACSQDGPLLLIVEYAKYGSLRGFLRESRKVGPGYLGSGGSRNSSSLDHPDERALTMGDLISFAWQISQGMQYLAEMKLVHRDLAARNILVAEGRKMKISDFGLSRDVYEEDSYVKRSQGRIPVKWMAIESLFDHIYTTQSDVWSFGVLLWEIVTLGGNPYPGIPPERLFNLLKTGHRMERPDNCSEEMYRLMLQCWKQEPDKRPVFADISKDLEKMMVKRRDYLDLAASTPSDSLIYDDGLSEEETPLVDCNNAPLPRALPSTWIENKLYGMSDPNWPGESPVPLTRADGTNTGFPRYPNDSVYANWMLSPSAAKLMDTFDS

B1: long-acting GDF15 fusion protein (dimer) FM11 + Fc_hole (ΔN3, G4N, D5S, H6T, S64R) (Fc fusion)
chain 1: APALAGGPSVFLFPPKPKDTLMISRTPEVTCVVVDVSHEDPEVKFNWYVDGVEVHNAKTKPREEQYNSTYRVVSVLTVLHQDWLNGKEYKCKVSNKALPAPIEKTISKAKGQPREPQVYTLPPSREEMTKNQVSLWCLVKGFYPSDIAVEWESNGQPENNYKTTPPVLDSDGSFFLYSKLTVDKSRWQQGNVFSCSVMHEALHNHYTQKSLSLSPGKGGGGSGGGGSGGGGSGGGGSGGGGSNSTCPLGPGRCCRLHTVRASLEDLGWADWVLSPREVQVTMCIGACPSQFRAANMHAQIKTRLHRLKPDTVPAPCCVPASYNPMVLIQKTDTGVSLQTYDDLLAKDCHCI
chain 2: not shown
Regarding B1, in test [1], the “EC50” value stood at 2.9 nM and the “Emax (%)” value worked out at 270%.

B2: long-acting GDF15 fusion protein (dimer) FWT + Fc_hole (ΔN2) (Fc fusion)
chain 1: APALAGGPSVFLFPPKPKDTLMISRTPEVTCVVVDVSHEDPEVKFNWYVDGVEVHNAKTKPREEQYNSTYRVVSVLTVLHQDWLNGKEYKCKVSNKALPAPIEKTISKAKGQPREPQVYTLPPSREEMTKNQVSLWCLVKGFYPSDIAVEWESNGQPENNYKTTPPVLDSDGSFFLYSKLTVDKSRWQQGNVFSCSVMHEALHNHYTQKSLSLSPGKGGGGSGGGGSGGGGSGGGGSGGGGSNGDHCPLGPGRCCRLHTVRASLEDLGWADWVLSPREVQVTMCIGACPSQFRAANMHAQIKTSLHRLKPDTVPAPCCVPASYNPMVLIQKTDTGVSLQTYDDLLAKDCHCI
chain 2: not shown
In the case of B2, the “EC50” value in test [2] came out at 7 nM; in test [3], 5.4 nM; in test [4], 7.3 nM. Besides, the “Emax (%) [relative to FWT 100%]” value in test [2], in test [3] and in test [4] was 100% in each case.

B3: long-acting GDF15 fusion protein (dimer) FM4-1 + Fc_hole (ΔN2, N56S, D103S) (Fc fusion)
chain 1: APALAGGPSVFLFPPKPKDTLMISRTPEVTCVVVDVSHEDPEVKFNWYVDGVEVHNAKTKPREEQYNSTYRVVSVLTVLHQDWLNGKEYKCKVSNKALPAPIEKTISKAKGQPREPQVYTLPPSREEMTKNQVSLWCLVKGFYPSDIAVEWESNGQPENNYKTTPPVLDSDGSFFLYSKLTVDKSRWQQGNVFSCSVMHEALHNHYTQKSLSLSPGKGGGGSGGGGSGGGGSGGGGSGGGGSNGDHCPLGPGRCCRLHTVRASLEDLGWADWVLSPREVQVTMCIGACPSQFRAASMHAQIKTSLHRLKPDTVPAPCCVPASYNPMVLIQKTDTGVSLQTYDSLLAKDCHCI
chain 2: not shown
In the case of B3, in test [3], the 50% effective concentration (EC50) was 8.9 nM and the “Emax (%) [relative to FWT 100%]” value was 86.4%.

B4: long-acting GDF15 fusion protein (dimer) FM4-2 + Fc_hole (ΔN2, D103L) (Fc fusion)
chain 1: APALAGGPSVFLFPPKPKDTLMISRTPEVTCVVVDVSHEDPEVKFNWYVDGVEVHNAKTKPREEQYNSTYRVVSVLTVLHQDWLNGKEYKCKVSNKALPAPIEKTISKAKGQPREPQVYTLPPSREEMTKNQVSLWCLVKGFYPSDIAVEWESNGQPENNYKTTPPVLDSDGSFFLYSKLTVDKSRWQQGNVFSCSVMHEALHNHYTQKSLSLSPGKGGGGSGGGGSGGGGSGGGGSGGGGSNGDHCPLGPGRCCRLHTVRASLEDLGWADWVLSPREVQVTMCIGACPSQFRAANMHAQIKTSLHRLKPDTVPAPCCVPASYNPMVLIQKTDTGVSLQTYDLLLAKDCHCI
chain 2: not shown
For the molecule B4, in test [3], the “EC50” value was 10.6 nM and the “Emax (%) [relative to FWT 100%]” value is 110%.

B5: long-acting GDF15 fusion protein (dimer) FM12 + Fc_hole (ΔN2, R21N, S64R) (Fc fusion)
chain 1: APALAGGPSVFLFPPKPKDTLMISRTPEVTCVVVDVSHEDPEVKFNWYVDGVEVHNAKTKPREEQYNSTYRVVSVLTVLHQDWLNGKEYKCKVSNKALPAPIEKTISKAKGQPREPQVYTLPPSREEMTKNQVSLWCLVKGFYPSDIAVEWESNGQPENNYKTTPPVLDSDGSFFLYSKLTVDKSRWQQGNVFSCSVMHEALHNHYTQKSLSLSPGKGGGGSGGGGSGGGGSGGGGSGGGGSNGDHCPLGPGRCCRLHTVNASLEDLGWADWVLSPREVQVTMCIGACPSQFRAANMHAQIKTRLHRLKPDTVPAPCCVPASYNPMVLIQKTDTGVSLQTYDDLLAKDCHCI
chain 2: not shown
For the molecule B5, in test [1], the “EC50” value was found to be 5.9 nM and the “Emax (%)” value was 221%.

B6: long-acting GDF15 fusion protein (dimer) FM4-3 + Fc_hole (ΔN2, N56L) (Fc fusion)
chain 1: APALAGGPSVFLFPPKPKDTLMISRTPEVTCVVVDVSHEDPEVKFNWYVDGVEVHNAKTKPREEQYNSTYRVVSVLTVLHQDWLNGKEYKCKVSNKALPAPIEKTISKAKGQPREPQVYTLPPSREEMTKNQVSLWCLVKGFYPSDIAVEWESNGQPENNYKTTPPVLDSDGSFFLYSKLTVDKSRWQQGNVFSCSVMHEALHNHYTQKSLSLSPGKGGGGSGGGGSGGGGSGGGGSGGGGSNGDHCPLGPGRCCRLHTVRASLEDLGWADWVLSPREVQVTMCIGACPSQFRAALMHAQIKTSLHRLKPDTVPAPCCVPASYNPMVLIQKTDTGVSLQTYDDLLAKDCHCI
chain 2: not shown
In the case of B6, in test [3], the “EC50” value is 140 nM and the “Emax (%) [relative to FWT 100%]” value amounted to 34.3%.

B7: long-acting GDF15 fusion protein (dimer) FM9 + Fc_hole (ΔN2, S64R) (Fc fusion)
chain 1: APALAGGPSVFLFPPKPKDTLMISRTPEVTCVVVDVSHEDPEVKFNWYVDGVEVHNAKTKPREEQYNSTYRVVSVLTVLHQDWLNGKEYKCKVSNKALPAPIEKTISKAKGQPREPQVYTLPPSREEMTKNQVSLWCLVKGFYPSDIAVEWESNGQPENNYKTTPPVLDSDGSFFLYSKLTVDKSRWQQGNVFSCSVMHEALHNHYTQKSLSLSPGKGGGGSGGGGSGGGGSGGGGSGGGGSNGDHCPLGPGRCCRLHTVRASLEDLGWADWVLSPREVQVTMCIGACPSQFRAANMHAQIKTRLHRLKPDTVPAPCCVPASYNPMVLIQKTDTGVSLQTYDDLLAKDCHCI
chain 2: not shown
Consider B7, for which, in test [4], the midpoint of the response, the EC50, lay at 5 nM and the “Emax (%) [relative to FWT 100%]” value worked out at 123%.

B8: long-acting GDF15 fusion protein (dimer) FM14 + Fc_hole (ΔN2, S64D) (Fc fusion)
chain 1: APALAGGPSVFLFPPKPKDTLMISRTPEVTCVVVDVSHEDPEVKFNWYVDGVEVHNAKTKPREEQYNSTYRVVSVLTVLHQDWLNGKEYKCKVSNKALPAPIEKTISKAKGQPREPQVYTLPPSREEMTKNQVSLWCLVKGFYPSDIAVEWESNGQPENNYKTTPPVLDSDGSFFLYSKLTVDKSRWQQGNVFSCSVMHEALHNHYTQKSLSLSPGKGGGGSGGGGSGGGGSGGGGSGGGGSNGDHCPLGPGRCCRLHTVRASLEDLGWADWVLSPREVQVTMCIGACPSQFRAANMHAQIKTDLHRLKPDTVPAPCCVPASYNPMVLIQKTDTGVSLQTYDDLLAKDCHCI
chain 2: not shown
As to B8, in test [4], a half-maximal response (EC50) required 7.9 nM and the “Emax (%) [relative to FWT 100%]” value was found to be 48.2%.

B9: long-acting GDF15 fusion protein (dimer) FM15 + Fc_hole (ΔN2, S64E) (Fc fusion)
chain 1: APALAGGPSVFLFPPKPKDTLMISRTPEVTCVVVDVSHEDPEVKFNWYVDGVEVHNAKTKPREEQYNSTYRVVSVLTVLHQDWLNGKEYKCKVSNKALPAPIEKTISKAKGQPREPQVYTLPPSREEMTKNQVSLWCLVKGFYPSDIAVEWESNGQPENNYKTTPPVLDSDGSFFLYSKLTVDKSRWQQGNVFSCSVMHEALHNHYTQKSLSLSPGKGGGGSGGGGSGGGGSGGGGSGGGGSNGDHCPLGPGRCCRLHTVRASLEDLGWADWVLSPREVQVTMCIGACPSQFRAANMHAQIKTELHRLKPDTVPAPCCVPASYNPMVLIQKTDTGVSLQTYDDLLAKDCHCI
chain 2: not shown
As for B9, in test [4], the “EC50” value was 33.6 nM and the “Emax (%) [relative to FWT 100%]” value stood at 41%.

B10: long-acting GDF15 fusion protein (dimer) FM13 + Fc_hole (ΔN2, S64N) (Fc fusion)
chain 1: APALAGGPSVFLFPPKPKDTLMISRTPEVTCVVVDVSHEDPEVKFNWYVDGVEVHNAKTKPREEQYNSTYRVVSVLTVLHQDWLNGKEYKCKVSNKALPAPIEKTISKAKGQPREPQVYTLPPSREEMTKNQVSLWCLVKGFYPSDIAVEWESNGQPENNYKTTPPVLDSDGSFFLYSKLTVDKSRWQQGNVFSCSVMHEALHNHYTQKSLSLSPGKGGGGSGGGGSGGGGSGGGGSGGGGSNGDHCPLGPGRCCRLHTVRASLEDLGWADWVLSPREVQVTMCIGACPSQFRAANMHAQIKTNLHRLKPDTVPAPCCVPASYNPMVLIQKTDTGVSLQTYDDLLAKDCHCI
chain 2: not shown
As for B10, in test [4], the response was half-maximal at 9.6 nM (EC50) and the “Emax (%) [relative to FWT 100%]” value was 93.3%.

B11: long-acting GDF15 fusion protein (dimer) FM4 + Fc_hole (ΔN2, N56C, D103C) (Fc fusion)
chain 1: APALAGGPSVFLFPPKPKDTLMISRTPEVTCVVVDVSHEDPEVKFNWYVDGVEVHNAKTKPREEQYNSTYRVVSVLTVLHQDWLNGKEYKCKVSNKALPAPIEKTISKAKGQPREPQVYTLPPSREEMTKNQVSLWCLVKGFYPSDIAVEWESNGQPENNYKTTPPVLDSDGSFFLYSKLTVDKSRWQQGNVFSCSVMHEALHNHYTQKSLSLSPGKGGGGSGGGGSGGGGSGGGGSGGGGSNGDHCPLGPGRCCRLHTVRASLEDLGWADWVLSPREVQVTMCIGACPSQFRAACMHAQIKTSLHRLKPDTVPAPCCVPASYNPMVLIQKTDTGVSLQTYDCLLAKDCHCI
chain 2: not shown
B11: in test [2], the response was half-maximal at 3.4 nM (EC50) and the “Emax (%) [relative to FWT 100%]” value came to 133%. Moreover, in test [3], a half-maximal effect (EC50) was put at 3.6 nM and the “Emax (%) [relative to FWT 100%]” value is 140%.

B12: long-acting GDF15 fusion protein (dimer) FM10 + Fc_hole (ΔN3, WS insertion, G4N, D5S, H6T, S64R) (Fc fusion)
chain 1: APALAGGPSVFLFPPKPKDTLMISRTPEVTCVVVDVSHEDPEVKFNWYVDGVEVHNAKTKPREEQYNSTYRVVSVLTVLHQDWLNGKEYKCKVSNKALPAPIEKTISKAKGQPREPQVYTLPPSREEMTKNQVSLWCLVKGFYPSDIAVEWESNGQPENNYKTTPPVLDSDGSFFLYSKLTVDKSRWQQGNVFSCSVMHEALHNHYTQKSLSLSPGKGGGGSGGGGSGGGGSGGGGSGGGGSWSNSTCPLGPGRCCRLHTVRASLEDLGWADWVLSPREVQVTMCIGACPSQFRAANMHAQIKTRLHRLKPDTVPAPCCVPASYNPMVLIQKTDTGVSLQTYDDLLAKDCHCI
chain 2: not shown
On to B12, for which, in test [1], the “EC50” value was found to be 2.3 nM and the “Emax (%)” value was found to be 267%.
